Laboratory results as given in patent US20060292657A1, “Phex substrates and methods using same” (priority 2003, published 2006).
Marks after values point to notes of the source that are not given here.

Tests used:
[1] = substrate: Nc1ccccc1C(=O)NCC(=O)N[C@@H](Cc1ccccc1)C(=O)N[C@@H](CO)C(=O)N[C@@H](CCC(=O)O)C(=O)N[C@@H](Cc1ccc(O)cc1)C(=O)N[C@@H](CCCCNc1ccc([N+](=O)[O-])cc1[N+](=O)[O-])C(=O)O; experiment: Kinetic parameters for hydrolysis of internally quenched fluorogenic peptides by secPHEX; type: biochemical, human; conditions: other: 37° C., 10 mM Bis-Tris buffer pH 5.5, 150 mM NaCl, [S]<<Km
Method in brief: (§1)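 Purified human recombinant secPHEX hydrolysing internally quenched fluorogenic peptides at 37° C in 10 mM Bis-Tris pH 5.5, 150 mM NaCl; fluorescence (ex 320, em 420 nm) followed continuously, <5% substrate hydrolysed, inner-filter corrected. Km and kcat by non-linear regression; kcat/Km under [S]<<Km where applicable.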

[2] = substrate: CC[C@H](C)[C@H](NC(=O)[C@H](CCC(=O)O)NC(=O)[C@H](CC(N)=O)NC(=O)[C@H](CC(=O)O)NC(=O)[C@H](CC(C)C)NC(=O)CNC(=O)[C@H](CCCNC(=N)N)NC(=O)c1ccccc1N)C(=O)N[C@@H](CCC(N)=O)C(=O)NCCNc1ccc([N+](=O)[O-])cc1[N+](=O)[O-]; experiment: as above; type: biochemical, human; conditions: other: 37° C., 10 mM Bis-Tris buffer pH 5.5, 150 mM NaCl
Method in brief: as §1

B1: human recombinant secPHEX (Homo sapiens) (protein)
chain: SLQAKQEYCLKPECIEAAAAILSKVNLSVDPCDNFFRFACDGWISNNPIPEDMPSYGVYPWLRHNVDLKLKELLEKSISRRRDTEAIQKAKILYSSCMNEKAIEKADAKPLLHILRHSPFRWPVLESNIGPEGVWSERKFSLLQTLATFRGQYSNSVFIRLYVSPDDKASNEHILKLDQATLSLAVREDYLDNSTEAKSYRDALYKFMVDTAVLLGANSSRAEHDMKSVLRLEIKIAEIMIPHENRTSEAMYNKMNISELSAMIPQFDWLGYIKKVIDTRLYPHLKDISPSENVVVRVPQYFKDLFRILGSERKKTIANYLVWRMVYSRIPNLSRRFQYRWLEFSRVIQGTTTLLPQWDKCVNFIESALPYVVGKMFVDVYFQEDKKEMMEELVEGVRWAFIDMLEKENEWMDAGTKRKAKEKARAVLAKVGYPEFIMNDTHVNEDLKAIKFSEADYFGNVLQTRKYLAQSDFFWLRKAVPKTEWFTNPTTVNAFYSASTNQIRFPAGELQKPFFWGTEYPRSLSYGAIGVIVGHEFTHGFDNNGRKYDKNGNLDPWWSTESEEKFKEKTKCMINQYSNYYWKKAGLNVKGKRTLGENIADNGGLREAFRAYRKWINDRRQGLEEPLLPGITFTNNQLFFLSYAHVRCNSYRPEAAREQVQIGAHSPPQFRVNGAISNFEEFQKAFNCPPNSTMNRGMDSCRLW
notes: pure soluble form of PHEX (secPHEX); made in house
Q: With B1 as the protein, how does the kcat/Km [1] read?
A: 9.0* mM^−1 s^−1

Q: And the Km [2]?
A: 7.0 µM

Q: And the kcat [2]?
A: 0.03 s⁻¹

Q: What about the kcat/Km [2] of the same protein?
A: 4300 M⁻¹ s⁻¹
